According to patent US20170020909A1, “METHODS OF TREATING GLAUCOMA USING AMP-ACTIVATED PROTEIN KINASE (AMPK) ACTIVATORS” (Massachusetts Eye and Ear Infirmary, priority 2014, published 2017):

Test system: AMPKα
Test: Time course immunoblot of p-AMPKα (Thr172)/total AMPKα in primary human TM cell lysates
Type: cell-based
Protocol: Primary human trabecular meshwork (TM) cells were isolated, in accordance with the Declaration of Helsinki, and maintained in culture as described previously.^63 Independent primary human TM cell lines were generated from donors ranging in age from 35 to 72 years and no known history of ocular disease. Cell cultures were maintained, unless otherwise stated, in Dulbecco's modified eagle medium (Life Technologies, Grand Island, N.Y.) containing 20% fetal bovine serum, 1% L-glutamine (2 mM), and gentamicin (0.1 mg/ml) at 37° C. in a 10% CO2 atmosphere. Only TM cells from third through fifth passage were used. All experiments were performed using at least three different primary human TM cell lines.
At the conclusion of each experiment for matricellular and ECM protein detection, conditioned media (CM) from TM cell cultures was harvested and centrifuged at 5000 rpm for 10 minutes at 4° C. The supernatant was then concentrated (Amicon Ultra-4 Filter Unit, 10 kDa; Millipore, Milford, Mass.), and protein content quantified using the DC Protein Assay kit adhering to manufacturer's protocols (Bio-Rad, Hercules, Calif.). For AMPK protein detection, cells were lysed for 3 minutes on ice with cold 1×RIPA buffer containing 0.5% Aprotinin, 0.1% EDTA, 1% EGTA, 0.5% PMSF, and 0.01% Leupeptin. Samples were then centrifuged at 14,000 rpm for 15 minutes at 4° C. and protein content quantified. In all experiments, equal amounts of protein were treated with 6× reducing buffer and boiled for 5 minutes. Samples were then electrophoresed in 10% SDS-polyacrylamide gels, alongside a pre-stained protein marker (Cell Signaling Technology Inc., Danvers, Ma). For conditioned media loading control, the resultant gels were stained with 0.1% Coomassie Brilliant Blue G-250 (Bio-Rad, Hercules Calif.) for 3 hours and were destained with fixing/destaining solution until clear bands were visible and contrasted well with the true blue background. Otherwise, proteins were transferred to nitrocellulose membranes (0.45-μm pore size; Invitrogen). […] The membranes were then washed three times with 1×TBS-T, scanned, and integrated band intensities were calculated using an infrared imaging system (Odyssey; Li-Cor, Lincoln, Nebr.). […]

B1: TGF-β2: activated transforming growth factor-β2 (R&D Systems) used to stimulate TM cells (protein, UniProt P61812 303-414, looked up)
Transforming growth factor …: ALDAAYCFRNVQDNCCLRPLYIDFKRDLGWKWIHEPKGYNANFCAGACPYLWSSDTQHSRVLSLYNTINPEASASPCCVSQDLEPLTILYYIGKTPKIEQLSNMIVKSCKCS
phospho-total AMPK ratio difference vs zero time point (2.5 ng/mL TGF-β2, at 30 minutes): no longer significant | decrease of phospho-total AMPK ratio, normalized to the zero time point (2.5 ng/mL TGF-β2, within 15 minutes, human TM cells): 30%
